# Data published in patent US20220356230A1 (published 2022).
# Positions count from the first letter of the chain named.
# B1: mAb10913 (antibody, V domains shown)
# VH: EVQLVESGGGLVQPGGSLRLSCAASGFTFRNYEMNWVRQAPGKGLEWVSYITSSGSTMYYADSVKGRFTISRDNAKNSLYLQMNSLRAEDTAVYYCARDGFYYYYAMDVWGQGTTVTVSS
# VL: QSVLTQPPSVSAAPGQKVTISCSGSSSNIGNNYVSWYQQLPGTAPKLLIYDNNKRPSGIPDRFSGSKSGTSATLGITGLQTGDEADYYCGTWDSSLSVGRVFGTGTKVTVLG
# B2: mAb10932 (antibody, V domains shown)
# VH: EVQLVESGGGLVQSGGSLRLSCAASGLTVSSNYMSWVRQAPGKGLEWVSVIYSGGSTFYSDSVKGRFTISRHNSKNTLYLQMNSLRAEDTAVYYCARARGDAFDIWGQGTMVTVSS
# VL: not shown
# B3: mAb10934 (antibody, V domains shown)
# VH: not shown
# VL: DIQMTQSPSSLSASVGDRVTITCQASQDIWNYINWYQQKPGKAPKLLIYDASNLKTGVPSRFSGSGSGTDFTFTISSLQPEDIATYYCQQHDDLPPTFGQGTKVEIKR
# B4: mAb10935 (antibody, V domains shown)
# VH: EVQLVESGGGLVQPGGSLRLSCAASGFTVSSNYMSWVRQAPGKGLEWVSLIYSGGSTYYADSVKGRFTISRHNSKNTLYLQMNSLRSEDTAVYYCARVPLGDYYYGMDVWGQGTTVTVSS
# VL: B3 VL with W30N, N31K, I33L, K55E, H91S, D93N, P96L, Q100G
# B5: mAb10937 (antibody, V domains shown)
# VH: QITLKESGPTLVKPTQTLTLTCTFSGFSLSTNVVGVGWIRQPPGKALEWLALIYWNDDKRYSPSLKSRLTITKDTSKNQVVLTMTNMDPVDTATYYCAHGPTGDYFDYWGQGTLVTVSS
# VL: not shown
# B6: mAb10921 (antibody, V domains shown)
# VH: EVQLVESGGGLVQPGGSLRLSCAASGITVSSNYMSWVRQAPGKGLEWVSVIYSGGSTFYADSVKGRFTISRHNSKNTLYLQMNSLRAEDTAVYYCARERNFDAFDIWGQGTMVTVSS
# VL: DIQMTQSPSSVSASVGDRVTITCRASQGISSWLAWYQQKPGKAPKLLIYAASSLQSGVPSRFSGSGSGTDFTLTISSLQPEDFATYYCQQANSFPLFTFGPGTKVDIKR
# B7: mAb10930 (antibody, V domains shown)
# VH: EVQLVESGGGLVQPGRSLRLSCAASGFTFDDYAMYWVRQAPGKGLEWVSGISWNSGSIGYADSVKGRFTISRDNAKNSLYLQMNSLRAADTALYYCAKDKDWNSRGYYYYGMDVWGQGTTVTVSS
# VL: not shown
# B8: mAb10939 (antibody, V domains shown)
# VH: EVQLVESGGGLVQPGGSLRLSCAASGLTVSSNYMNWVRQVPGKGLEWVSVIYSGGSKFYVDSVKGRFTISRHNSKNTLYLQMNSLRPEDTAVYYCTRDAQYYGMDVWGQGTTVTVSS
# VL: DIQMTQSPSSLSASVGDRVTITCRASQSISTYLHWYQQKPGEAPKLLIYAASSLQSGVPSRFSGSGSGTDFTLTISSLQPEDFATYYCQQSYSTPPEIFGQGTKLEIKR
# B9: mAb10982 (antibody, V domains shown)
# VH: EVQLVESGGGLVQPGGSLRLSCAASGLTVSSNYMSWVRQAPGKGLEWVSVIYSGGTTYYADSVKGRFTISRHNSKNTLSLQMNSLRAEDTAVYYCARGEGANYYGMDVWGQGTTVTVSS
# VL: QSVLTQPPSVSGAPGQRVTISCTGSSSNIGTGYDVHWYQQLPGTAPKLLIYGNSNRPSGVPDRFSGSKSGTSASLAITGLQAEDEADYYCQSYDSSLSGYVVFGGGTKLTVLG
# B10: mAb10986 (antibody, V domains shown)
# VH: EVQLVESGGGLVQPGGSLRLSCAASEFTVSSNYMSWVRQAPGKGLEWVSVIYSGGSTFYADSVKGRFTISRDNSKNTLYLQMNSLRAEDTAVYYCARALPYGDLHFDYWGQGTLVTVSS
# VL: B9 VL with S54T, G99D, Y100S, V101Y, G105T, L109V
# B11: mAb10989 (antibody, V domains shown)
# VH: QVQLVQSGAEVKKPGASVKVSCKASGYIFTGYYMHWVRQAPGQGLEWMGWINPNSGGANYAQKFQGRVTLTRDTSITTVYMELSRLRFDDTAVYYCARGSRYDWNQNNWFDPWGQGTLVTVSS
# VL: QSALTQPASVSGSPGQSITISCTGTSSDVGTYNYVSWYQQHPGKAPKLMIFDVSNRPSGVSDRFSGSKSGNTASLTISGLQAEDEADYYCSSFTTSSTVVFGGGTKLTVLG
# B12: mAb10971 (antibody, V domains shown)
# VH: EVQLVESGGGLIQPGGSLRLSCAASGVTVSSNYMSWVRQAPGKGLEWVSVIYSGGSTFYSDSVKGRFSISRDNSKNTLYLQMNSLRAEDTAVYYCARDLYYYGMDVWGQGTTVTVSS
# VL: DIQLTQSPSFLSASVGDRVTITCRASQGISTYLAWYQQKPGKAPKLLIYAASTLQSGVPSRFSGSGSGTEFTLTISSLQPEDFATYYCQQLDSYPGLTFGGGTKVEIKR
# B13: mAb10964 (antibody, V domains shown)
# VH: QVQLQESGPGLVKPSETLSLTCTVSGGSINNYYWIWIRQPPGKGLEWIGYIYHSGSTNYNPSLKSRVTISVDTSKNQFSLKVSSVTAADTAVYYCANMVRGVYEDDYWGQGTLVTVSS
# VL: DIQMTQSPSSLSASVGDRVTITCRASQSISNYLNWYQQKPGKAPKLLIFAASSLRSGVPSRFSGSGSGTDFTLTISSLHPEDFATYYCQQNYNTPLTFGPGTKVDIKR
# B14: mAb10966 (antibody, V domains shown)
# VH: EVQLVESGGGLVQPGGSLRLSCAASGLTVSSNYMSWVRQAPGKGLEWVSVIYSGGSTFYADSVKGRFTISRDNSKNTLYLQMNSLRPEDTAVYYCAREGRIAATGYGMDVWGQGTTVTVSS
# VL: not shown
# B15: mAb10967 (antibody, V domains shown)
# VH: EVQLVESGGGLVQPGGSLRLSCAASGFTVSSNYMSWVRQAPGKGLEWVSVIYPGGSTFYADSVKGRFTISRDNSKNTLYLQMNSLRAEDTAVYYCARDQRDFAWGQGTLVTVSS
# VL: B3 VL with W30S, I33L, K55E, S77G, H91Y, D93N, K103R, V104L
# B16: mAb10954 (antibody, V domains shown)
# VH: EVQLVESGGGLVQPGGSLRLSCAASGITVSSNYMSWVRQAPGKGLEWVSLIYSGGSTYYADSVKGRFTISRDNSKNTLYLQMNSLRVEDTAVYYCARDHGMAAAGYNYWGQGTLVTVSS
# VL: B3 VL with W30N, N31K, I33L, K55E, S76N, I83F, Y87F, H91Y, D93N, T97A
# B17: mAb10956 (antibody, V domains shown)
# VH: B12 VH with I12V, V27L, S60A, S68T, Y100I, Y101K
# VL: not shown
# B18: mAb10957 (antibody, V domains shown)
# VH: B12 VH with I12V, S60A, S68T, Y79F, A87I, Y100G, Y101P
# VL: B12 VL with T31S, E70Q, T72I, D92N, L97F, G101P, E106D
# B19: mAb10985 (antibody, V domains shown)
# VH: EVQLVESGGGLVQPGRSLRLSCAASGFTFDDYAMHWVRQAPGKGLEWVSGISWNRGSIGYADSVKGRFTISRDNAKNSLYLQMSSLRAEDTALYYCAKDGERWDSVVVPSARNGMDVWGQGTTVTVSS
# VL: B9 VL with T31A, Y100S, V101Y, G105T, L109V
# Molecular target: SARS-CoV-2 Spike Protein (S1 Subunit, His Tag) (Sino 40591-V08H) (SARS-CoV-2, UniProt P0DTC2 16-685)
# Assay: Luminex bead assay, antibody supernatant, antigen on microspheres
row,Binder,Binding signal (MFI)
1,B1,24900 MFI
2,B2,22100 MFI
3,B3,27500 MFI
4,B4,25600 MFI
5,B5,26400 MFI
6,B6,12200 MFI
7,B7,21200 MFI
8,B8,23900 MFI
9,B9,14000 MFI

# Molecular target: SARS-CoV-2 Spike Protein (S1 Subunit, Fc Tag) (Sino 40591-V02H) (SARS-CoV-2, UniProt P0DTC2 16-685)
# Assay: as above
row,Binder,Binding signal (MFI)
1,B1,18900 MFI
2,B2,17600 MFI
3,B3,20600 MFI
4,B4,20000 MFI
5,B5,19600 MFI
6,B6,8960 MFI
7,B7,16500 MFI
8,B8,18200 MFI
9,B9,10800 MFI

# Molecular target: SARS-CoV-2 Spike Protein (S1 Subunit, His Tag) (Sino 40591-V08H) (SARS-CoV-2, UniProt P0DTC2 16-685)
# Assay: Luminex bead assay, supernatant on antigen microspheres
row,Binder,Binding signal (MFI)
1,B10,19100 MFI
2,B11,14200 MFI
3,B12,21600 MFI
4,B13,24200 MFI
5,B14,23300 MFI
6,B15,21900 MFI
7,B16,21300 MFI
8,B17,20000 MFI
9,B18,12000 MFI

# Molecular target: SARS-CoV-2 Spike Protein (S1 Subunit, Fc Tag) (Sino 40591-V02H) (SARS-CoV-2, UniProt P0DTC2 16-685)
# Assay: as above
row,Binder,Binding signal (MFI)
1,B19,16200 MFI
2,B10,16000 MFI
3,B11,12300 MFI
4,B12,17000 MFI
5,B13,18600 MFI
6,B14,16400 MFI
7,B15,15800 MFI
8,B16,16600 MFI
9,B17,15000 MFI
10,B18,8450 MFI
